IC50 and Km data for three molecules are collected here from paper PMC6508677, “Identification of druggable small molecule antagonists of the Plasmodium falciparum hexose transporter PfHT and assessment of ligand access to the glucose permeation pathway via FLAG-mediated protein engineering” (PLoS ONE, 2019).

Data set [1] has as its system blood stage parasites. Further details: method as in PMID 26248369. The settings on record: read-out: IC50 against blood stage parasites; cited from earlier work.
Substrate in data set [2]: O=CC[C@@H](O)[C@H](O)[C@H](O)CO
Description: cells, lysate or membranes. Format: cell-based, Plasmodium falciparum. The following applies: other: 2-DG uptake (1 min), FTPfHT; pH 7.1; 37.0 °C.
Description: Glucose uptake by P. falciparum was performed essentially as described [23]. P. falciparum strain 3D7 was cultured in 100 mm tissue culture dishes (Techno Plastic Products) in a 2% suspension of human erythrocytes and RPMI 1640 medium until reaching > 7.5% parasitemia. Cells were pelleted via centrifugation and resuspended in RPMI 1640 medium. To determine the uptake of radiolabeled glucose into the parasite, parasites were isolated from infected erythrocytes by permeablization with saponin (0.05 w/v), followed by centrifugation, aspiration of supernatant and washing of the pellet 3X with saline solution (135 mM NaCl, 2 mM KCl, 25 mM HEPES, 0.2 mM glucose and 1 mM MgCl2; pH 7.1) to remove cellular debris. […] The ratio of the estimated intracellular concentration of radiolabel relative to the extracellular concentration were calculated as described [23]. Uptake of radiolabeled hexose into HEK293 cells was measured in glucose-free HBSS as described previously [24]. […] After 30-min incubation at 37°C in glucose-free HBSS in the presence of vehicle or increasing concentrations of compound, 2-DG uptake was measured in glucose-free HBSS for 4 min at 37°C. […] Radiolabeled hexose uptake was determined by liquid scintillation counting (Ultima Gold, Thermo Fisher) and normalized to total protein per well. […]

Substrate in data set [3]: O=CC[C@@H](O)[C@H](O)[C@H](O)CO
Description: cells, lysate or membranes. The following applies: other: 2-DG uptake (1 min), PfHT; pH 7.1; 37.0 °C.
Description: Glucose uptake by P. falciparum was performed essentially as described [23]. P. falciparum strain 3D7 was cultured in 100 mm tissue culture dishes (Techno Plastic Products) in a 2% suspension of human erythrocytes and RPMI 1640 medium until reaching > 7.5% parasitemia. Cells were pelleted via centrifugation and resuspended in RPMI 1640 medium. To determine the uptake of radiolabeled glucose into the parasite, parasites were isolated from infected erythrocytes by permeablization with saponin (0.05 w/v), followed by centrifugation, aspiration of supernatant and washing of the pellet 3X with saline solution (135 mM NaCl, 2 mM KCl, 25 mM HEPES, 0.2 mM glucose and 1 mM MgCl2; pH 7.1) to remove cellular debris. WU-1 or DMSO vehicle were added to 100 μl parasites (resuspended in saline) 5 min prior to the addition of 100 μl [^14C]2-DOG (0.2- μCi/ml final concentration). 2-DG uptake was stopped after 2 min by layering the entire reaction over 300 μl of an oil mixture (5:4 mix of dibutyl phthalate / dinonyl phthalate) in Eppendorf tubes and centrifuged at 15,850 × g for 2 mins. The ratio of the estimated intracellular concentration of radiolabel relative to the extracellular concentration were calculated as described [23]. Uptake of radiolabeled hexose into HEK293 cells was measured in glucose-free HBSS as described previously [24]. Briefly, cells were plated at 400,000 cells/well overnight at 37°C in 24-well plates pre-treated with PEI. After 30-min incubation at 37°C in glucose-free HBSS in the presence of vehicle or increasing concentrations of compound, 2-DG uptake was measured in glucose-free HBSS for 4 min at 37°C. Cultures were washed in ice-cold 1X PBS and lysed in 0.1% Triton X-100 in 1X PBS. Radiolabeled hexose uptake was determined by liquid scintillation counting (Ultima Gold, Thermo Fisher) and normalized to total protein per well. Uptake data are plotted as percent uptake relative to vehicle-treated cells. Kinetic analyses were performed using the indicated concentrations of substrate and WU-1, with quenching of uptake after 1 min incubation. […] Data were fit by least squares nonlinear regression analysis using GraphPad Prism 6.0 software.

As to `Cc1cccc(C)c1OCC(=O)N[C@@H](Cc1ccccc1)[C@@H](O)C[C@H](Cc1ccccc1)NC(=O)[C@H](C(C)C)N1CCCNC1=O` [lopinavir], in data set [1], the IC50 (usually the concentration that gives 50% inhibition) was 16 µM.

B1: FTPfHT (Plasmodium falciparum 3D7) (protein)
chain: MTKSSKDICSENEGKKNGKSGFFSTSFKYVLSACIASFIFGYQVSVLNTIKNFIVVEFEWCKGEKDRLNCSNNTIQSSFLLASVFIGAVLGCGFSGYLVQFGRRLSLLIIYNFFFLVSILTSITHHFHTILFARLLSGFGIGLVTVSVPMYISEMTHKDKKGAYGVMHQLFITFGIFVAVMLGLAMGEGPKADSTEPLTSFAKLWWRLMFLFPSVISLIGILALVVFFKEETPYFLFEKGRIEESKNILKKIYETDNVDEPLNAIKEAVEQNESAKKNSLSLLSALKIPSYRYVIILGCLLSGLQQFTGINVLVSNSNELYKEFLDSHLITILSVVMTAVNFLMTFPAIYIVEKLGRKTLLLWGCVGVLVAYLPTAIANEINRNSNFVKILSIVATFVMIISFAVSYGPVLWIYLHEMFPSEIKDSAASLASLVNWVCAIIVVFPSDIIIKKSPSILFIVFSVMSILTFFFIFFFIKETKGGEIGTSPYITMEERQKHMTKSVV
notes: the 38–40 kDa band represents full length PfHT; expressed in transfected cells; host or cells: HEK293-FLIP (HEK293)
In the case of B1, in data set [2], the Km – broadly, the concentration of substrate that gives half-maximal velocity – is 2100 ± 500 µM.

B2: PfHT (Plasmodium falciparum 3D7) (protein)
chain: MTKSSKDICSENEGKKNGKSGFFSTSFKYVLSACIASFIFGYQVSVLNTIKNFIVVEFEWCKGEKDRLNCSNNTIQSSFLLASVFIGAVLGCGFSGYLVQFGRRLSLLIIYNFFFLVSILTSITHHFHTILFARLLSGFGIGLVTVSVPMYISEMTHKDKKGAYGVMHQLFITFGIFVAVMLGLAMGEGPKADSTEPLTSFAKLWWRLMFLFPSVISLIGILALVVFFKEETPYFLFEKGRIEESKNILKKIYETDNVDEPLNAIKEAVEQNESAKKNSLSLLSALKIPSYRYVIILGCLLSGLQQFTGINVLVSNSNELYKEFLDSHLITILSVVMTAVNFLMTFPAIYIVEKLGRKTLLLWGCVGVLVAYLPTAIANEINRNSNFVKILSIVATFVMIISFAVSYGPVLWIYLHEMFPSEIKDSAASLASLVNWVCAIIVVFPSDIIIKKSPSILFIVFSVMSILTFFFIFFFIKETKGGEIGTSPYITMEERQKHMTKSVV
As for B2, the Km in data set [3] came to 1800 ± 300 µM.
